The values that follow come from patent US20130053541A1, “METHODS FOR DISCOVERING MOLECULES THAT BIND TO PROTEINS” (LYNNTECH, INC., priority 2011, published 2013).

The first assay addresses T1, native human ESRRG protein (Homo sapiens, UniProt P62508).
T1 sequence (P62508 1-458): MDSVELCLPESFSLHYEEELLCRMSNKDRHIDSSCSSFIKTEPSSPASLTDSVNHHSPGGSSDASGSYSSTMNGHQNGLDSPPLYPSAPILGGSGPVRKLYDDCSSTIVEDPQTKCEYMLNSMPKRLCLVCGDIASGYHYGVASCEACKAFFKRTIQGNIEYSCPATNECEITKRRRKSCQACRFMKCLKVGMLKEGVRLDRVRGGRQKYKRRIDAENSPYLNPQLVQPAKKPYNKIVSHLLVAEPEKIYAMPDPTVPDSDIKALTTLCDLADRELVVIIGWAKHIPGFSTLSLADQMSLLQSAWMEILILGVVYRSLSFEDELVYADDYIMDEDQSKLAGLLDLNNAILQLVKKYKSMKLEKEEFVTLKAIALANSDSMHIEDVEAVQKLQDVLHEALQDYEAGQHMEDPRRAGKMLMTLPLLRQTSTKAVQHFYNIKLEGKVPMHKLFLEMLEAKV
The experiment in a line: peptide microarray screening for ESRRG binding (Iteration 1 and 2). Particulars: Iteration 1 primary screen. The source says:
The BLOSUM62 matrix was divided into Tiers based, with Tier 1 comprising “most conserved” (lowest penalty) and Tier 3 comprising “least conserved” (highest penalty) mutations observed in nature. Sequences for microarray production for the primary stage (Iteration 1) of screening for protein binding were created by permuting AA positions 4 and/or 5 only (i.e., core of sequence) of parent 8-mer peptides using Tier 1 and Tier 3 substitutions. This allows the systematic variation of the sequence in order to identify the most important motif within the larger candidate ligand sequence that is needed for binding the target protein. All peptides on the array were grown from the C→N terminal, with the exposed N-terminal amino acid masked by an acetyl group to prevent folding of the sequence and enable full presentation of the peptide to its target protein.
Screening was carried out typically by hybridization of the protein (1 μg/mL) against the array for 1 h at 4° C.; detection of bound protein was carried out using a fluorescently labeled anti-ESRRG mAb. (Direct labeling of ESRRG and alternative detection strategies are equally valid).
Highest binders (based on relative fluorescence signal) were selected and iteratively sequence expanded and arrayed (Iteration 2); and ESRRG binding sequences were selected as above. For iterative arrays, the core positions (AA 4 and 5) were kept unchanged while the outer amino acids (2, 3, 6, and/or 7) were permuted using Tier 3 substitutions.
Daughter candidate ligands and their new Tier 3 and/or Tier 1 based combinations were synthesized in situ on an addressable peptide microarray and screened against native human ESRRG protein in order to determine sequences that bind to this protein. Bound protein was detected by a fluorescently labeled anti-ESRRG mAb. Results are obtained in fluorescence intensity units which were used to rank the peptide ligands. Excess (100×) competing biological matrices (human serum, HSA/BSA or bacterial protein extract) were used as backgrounds to select for specific ligands to the protein. Other competing proteins can be added to background for specificity selection and directed evolution of ligands.
Iterative sequence expansion and arraying of 10 highest binding ligands to ESRRG from Iteration 1 was carried out and the new peptide sequences were synthesized on an array and screened against the protein, as described above. In this step, the central 2 amino acids (core) in peptide sequences were maintained unchanged while outlying amino acids (2, 3, 6, and 7) were permuted (using Tier 1 and Tier 3 substitutions) in a ‘cipher’ or ‘combination’ lock approach. Further affinity maturation of sequence was observed, with multifold enhancement in binding signal of Iteration 2 sequences (i.e., Granddaughters) compared to their respective parents from Iteration 1 (i.e., Daughters) on the same array.
As to Ac-AANMFLLL-NH2 (C-terminus assumed), the “log2 (Sample B/Sample A)” value worked out at 5.37. Same read-out and setting: the same measure for Ac-AIRGALMG-NH2 (C-terminus assumed): 5.48. The same measure, in the same setting: the same measure for Ac-AIRLHLMG-NH2 (C-terminus assumed): 5.07; for Ac-ANNSRLLH-NH2 (C-terminus assumed): 5.54; for Ac-IKQDHNNS-NH2 (C-terminus assumed): 9.45. Still for that read-out and setting: under Ac-IKQNHNNS-NH2 (C-terminus assumed) stands 9.63; under Ac-LLHKSKSQ-NH2 (C-terminus assumed), 4.99; under Ac-LLHSSKSQ-NH2 (C-terminus assumed), 5.40. With Ac-NIKVNANN-NH2 (C-terminus assumed), the “log2 (Sample B/Sample A)” value turned out to be 7.62.

Turning to Ac-NSLKKHLL-NH2 (C-terminus assumed), the “log2 (Sample B/Sample A)” value stood at 10.84. On the same count and under the same terms, the same measure for Ac-NSLLKHLL-NH2 (C-terminus assumed): 7.65; for Ac-NSLRKHLL-NH2 (C-terminus assumed): 5.36.

The assay is the same for the next values; noted with them: Iteration 1 primary screen; fluorescence intensity units.
Regarding AANMLLLL, the “Sample A (Bkgd) Signal” value was determined as 25.96 and the “Sample B (Probe) Signal” value was 1,191.86. The corresponding values for AANMSLLL are 16.99 and 1,217.01. The corresponding values for AANMYLLL are 64.73 and 4,011.85. The corresponding values for AANNYLLL are 31.22 and 3,436.10.

In the case of AANYILLL, the “Sample A (Bkgd) Signal” value is recorded as 13.78 and the “Sample B (Probe) Signal” value is 2,012.02. The corresponding values for AANYLLLL are 22.22 and 3,763.81.

Regarding AANYVLLL, the “Sample A (Bkgd) Signal” value amounted to 14.74 and the “Sample B (Probe) Signal” value is given as 2,199.01.

Take AIRGHLMG: the “Sample A (Bkgd) Signal” value was 18.88. Same read-out and setting: under AIRVHLMG stands 11.78. Take ANNFLLLH: the “Sample A (Bkgd) Signal” value is given as 46.43 and the “Sample B (Probe) Signal” value is given as 1,624.73. The corresponding values for ANNILLLH are 13.51 and 1,093.06. As for ANNIQLLH, the “Sample A (Bkgd) Signal” value is on record as 2.12.

ANNIWLLH: the “Sample A (Bkgd) Signal” value is reported as 30.52 and the “Sample B (Probe) Signal” value is on record as 1,012.72.

On to ANNLKLLH, for which the “Sample A (Bkgd) Signal” value is recorded as 56.94 and the “Sample B (Probe) Signal” value is reported as 1,672.30. Regarding ANNLQLLH, the “Sample A (Bkgd) Signal” value amounted to 47.08 and the “Sample B (Probe) Signal” value is listed as 1,537.71. Consider ANNLSLLH, for which the “Sample A (Bkgd) Signal” value turned out to be 21.54 and the “Sample B (Probe) Signal” value is given as 1,220.01. The corresponding values for ANNLWLLH are 41.92 and 1,606.54. The corresponding values for ANNSKLLH are 23.60 and 1,009.30.

For the substance ANNSLLLH, the “Sample A (Bkgd) Signal” value was 14.53 and the “Sample B (Probe) Signal” value is listed as 1,321.14.

Consider ANNSQLLH, for which the “Sample A (Bkgd) Signal” value worked out at 1.00. As to ANNSSLLH, the “Sample A (Bkgd) Signal” value worked out at 7.39 and the “Sample B (Probe) Signal” value was 1,153.13.

As for ANNSWLLH, the “Sample A (Bkgd) Signal” value is 20.06 and the “Sample B (Probe) Signal” value is given as 1,259.63.

For ANNVKLLH, the “Sample A (Bkgd) Signal” value is given as 52.38 and the “Sample B (Probe) Signal” value is 1,718.47. With ANNVLLLH, the “Sample A (Bkgd) Signal” value amounted to 65.96 and the “Sample B (Probe) Signal” value is 1,997.75. The corresponding values for ANNVSLLH are 62.19 and 1,818.72. On to Ac-AANMFLLL-NH2 (C-terminus assumed), for which the “Sample A (Bkgd) Signal” value was 42.26 and the “Sample B (Probe) Signal” value is given as 1,752.81. As to Ac-AIRGALMG-NH2 (C-terminus assumed), the “Sample A (Bkgd) Signal” value stood at 19.03 and the “Sample B (Probe) Signal” value stood at 851.06. The corresponding values for Ac-AIRLHLMG-NH2 (C-terminus assumed) are 28.09 and 942.75. The corresponding values for Ac-ANNSRLLH-NH2 (C-terminus assumed) are 31.74 and 1,480.35. The corresponding values for Ac-IKQDHNNS-NH2 (C-terminus assumed) are 1.00 and 701.08.

Take Ac-IKQNHNNS-NH2 (C-terminus assumed): the “Sample A (Bkgd) Signal” value came out at 1.00 and the “Sample B (Probe) Signal” value is listed as 793.75. The corresponding values for Ac-LLHKSKSQ-NH2 (C-terminus assumed) are 30.24 and 962.22.

Ac-LLHSSKSQ-NH2 (C-terminus assumed): the “Sample A (Bkgd) Signal” value turned out to be 19.42 and the “Sample B (Probe) Signal” value is 819.16.

For the substance Ac-NIKVNANN-NH2 (C-terminus assumed), the “Sample A (Bkgd) Signal” value was 3.04 and the “Sample B (Probe) Signal” value was 598.87. The corresponding values for Ac-NSLKKHLL-NH2 (C-terminus assumed) are 5.04 and 9,219.14. Ac-NSLLKHLL-NH2 (C-terminus assumed): the “Sample A (Bkgd) Signal” value was found to be 73.81 and the “Sample B (Probe) Signal” value is on record as 14,810.16.

As for Ac-NSLRKHLL-NH2 (C-terminus assumed), the “Sample A (Bkgd) Signal” value was 20.79 and the “Sample B (Probe) Signal” value worked out at 856.14. As to IKQNYNNS, the “Sample A (Bkgd) Signal” value worked out at 23.70. For the substance KSLLQQLL, the “Sample A (Bkgd) Signal” value amounted to 88.50 and the “Sample B (Probe) Signal” value is given as 7,385.40.

Still in this assay, the particulars now being: Iteration 2 iterative screen.
As for Ac-LYLLKHHP-NH2 (C-terminus assumed), the “log2 (Sample B/Sample A)” value was 3.05.

The assay is the same for the next values; noted with them: Iteration 2 iterative screen; fluorescence intensity units.
Consider AFNMYLDE, for which the “Sample A (Bkgd) Signal” value was 115.25. On the same count and under the same terms, the same measure for AHNYLLEH: 115.46; for ALNFSLNW: 152.44. Ac-LYLLKHHP-NH2 (C-terminus assumed): the “Sample A (Bkgd) Signal” value worked out at 304.92 and the “Sample B (Probe) Signal” value is 2,527.00. The corresponding values for DINFSLGI are 160.50 and 4,797.29. The corresponding values for DNNYLLLL are 156.87 and 2,242.02. Regarding DRSYPRHT, the “Sample A (Bkgd) Signal” value was 68.94. Turning to EDSYPRDG, the “Sample A (Bkgd) Signal” value is given as 297.83 and the “Sample B (Probe) Signal” value is on record as 5,021.94. Take EESYPRDK: the “Sample A (Bkgd) Signal” value is given as 121.27.

Turning to FFKGHFKF, the “Sample A (Bkgd) Signal” value amounted to 543.19 and the “Sample B (Probe) Signal” value is 5,435.29. The corresponding values for FFNFSLPA are 165.50 and 1,043.90. With FVNFSLGI, the “Sample A (Bkgd) Signal” value was determined as 238.31. Take FWKGHFDF: the “Sample A (Bkgd) Signal” value amounted to 230.42 and the “Sample B (Probe) Signal” value is 1,455.83. On to FWNMYLNP, for which the “Sample A (Bkgd) Signal” value is reported as 158.25. As to FYNMYLLN, the “Sample A (Bkgd) Signal” value was determined as 251.75 and the “Sample B (Probe) Signal” value is recorded as 1,558.62. The corresponding values for GKSYPRHR are 553.79 and 3,049.48. The corresponding values for HDNMYLNE are 81.50 and 7,243.75. Consider HFKLKQGG, for which the “Sample A (Bkgd) Signal” value is listed as 641.69 and the “Sample B (Probe) Signal” value is 3,108.23. The corresponding values for HLKLKQEN are 183.65 and 1,745.92.

On to HNNFSLEP, for which the “Sample A (Bkgd) Signal” value amounted to 107.88.

Consider HNNYLLNN, for which the “Sample A (Bkgd) Signal” value is listed as 190.35. Still for that read-out and setting: under HNSYPRNE stands 143.58. Turning to HRSYPRRG, the “Sample A (Bkgd) Signal” value came to 805.42 and the “Sample B (Probe) Signal” value is given as 19,001.58. The corresponding values for HRSYPRVY are 494.92 and 2,451.98.

For the substance HYKLKQHE, the “Sample A (Bkgd) Signal” value is 165.10 and the “Sample B (Probe) Signal” value was 1,296.65. Regarding IFLLQQDN, the “Sample A (Bkgd) Signal” value is recorded as 238.04 and the “Sample B (Probe) Signal” value is listed as 1,007.54. The corresponding values for LFKLKQDG are 277.71 and 2,776.37.
